Measurements taken from patent JP2009045066A (dated 2009).

Target: T1, 天然のヒトCD4(細胞表面) (human, UniProt P01730 26-458)
T1 construct: whole, on cells; also called nCD4; CD4 on SupT1 cells
Test: flow cytometry on SupT1 cells, serial dilutions, half-maximal fluorescence

Ka: > 1e+09 M⁻¹
B1: 4D1 (antibody, V domains shown)
VH: EVQLVQSGAEVKKPGESLKISCKGSGYSFTGYWIGWVRQMPGKGLEWMGIIYPGDSDTTYSPSFQGQVTISADKSISTAYLQWSSLKASDTAMYYCARDQLGLFDYWGQGTLVTVSS
VL: DIQMTQSPSSLSASVGDRVTITCRASQGISSWLAWYQQKPEKAPKSLIYSASSLQSGVPSRFSGSGSGTDFTLTISSLQPEDFATYYCQQYDSYPYTFGQGTKLEIK
